Earlier results, collected in patent publication US5744316A, “Isolated, tyrosinase derived peptides and uses thereof” (Ludwig Institute for Cancer Research, priority 1996, dated 1998).
Where no end group is shown, it is not given here.

How the values were obtained:
[1] = molecular target: HLA-B*4402 molecules (Homo sapiens, UniProt P01889, A223V/A65T/A93T/A95T/D201E/D98Y/E176V/E187L/E204Q/E69K/G107R/H137Y/K202T/L105A/L119I/N104T/N87E/Q56L/Q94N/R106L/R155S/R180D/S101N/S121R/S35A/S48T/T118I/V36M/W191S/Y140D/Y91S); details: Coulie et al. 1995
[2] = system: HLA-B44; details: Burrows et al. 1990

Sequence | binding to HLA-B*4402 molecules [1] | binding by HLA-B44 [2]
EEKLIVVLF [SEQ ID NO: 11] | binds | 
EENLLDFVRF [SEQ ID NO: 9] |  | bound
